For test [1], the target named is T1, Src of LLC-PK1 cells (endogenous) (pig, UniProt K7GM45 2-548).
T1 construct: Species from the cell line (pig kidney proximal LLC-PK1); also called Src from the LLC-PK1 cell lysates; Src in TCN23-19 and PY-17 cells (clones of LLC-PK1)
The experiment in a line: GST pulldown from cell lysates, Western blot. (In western blotting, separated proteins are transferred to a membrane and probed.)

The target of test [2] is purified pig kidney Na+/K+-ATPase (PKE) (pig, UniProt P05024 6-1021; P05027 1-303). Briefly: in vitro binding assay with GST-tagged Src truncations and purified Na+/K+-ATPase.

The results in this text go back to US20130150294A1 (UNIVERSITY OF TOLEDO, published 2013).

B1: GST-SERCA-CD3 (other)
chain: GTRRMAKKNAIVRSLPSVETLGCTSVICSDKTGTLTTNQMSVCRMFILDKVEGDTCSLNEFTITGSTYAPIGEVQKDDKPVKCHQYDGLVELATICALCNDSALDYNEAKGVYEKVGEATETALTCLVEKMNVFDTELKGLSKIERANACNSVIKQLMKKEFTLEFSRDRKSMSVYCTPNKPSRTSMSKMFVKGAPEGVIDRCTHIRVGSTKVPMTPGVKQKIMSVIREWGSGSDTLRCLALATHDNPLRREEMHLEDSANFIKYETNLTFVGCVGMLDPPRIEVASSVKLCRQAGIRVIMITGDNKGTAVAICRRIGIFGQDEDVTSKAFTGREFDELSPSAQRDACLNARCFARVEPSHKSKIVEFLQSFDEITAMTGDGVNDAPALKKSEIGIAMGSGTAVAKTASEMVLADDNFSTIVAAVEEGRAIYNNMKQFIRYLISSNV
notes: also called GST-CD3 from rat heart sarcoplasmic reticulum Ca2+-ATPase 2a
In the case of B1, the binding result in test [1] was “no binding (tested: 1 mg LLC-PK1 cell lysates)”.

B2: GST-KD1 of Src (other)
chain: LRLEVKLGQGCFGEVWMGTWNGTTRVAIKTLKPGTMSPEAFLQEAQVMKKLRHE
notes: also called GST-tagged Src truncation; not shown: glutathione S-transferase (GST) fusion tag
With B2, in test [2], the binding result is on record as “binds”.
